Results on four molecules are retold here after patent publication US20160145343A1 (UNIVERSITY OF PITTSBURGH OF THE COMMONWEALTH SYSTEM OF …, published 2016).

For assay [1], the target named is T1, Synthetic peptide (GVTSAPDTRPAPGSTAPPAH)2.
T1 peptide: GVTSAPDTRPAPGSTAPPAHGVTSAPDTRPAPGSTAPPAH
Briefly: ELISA on coated peptide, antibody 0.01 mg/ml, mean of 3. The text has this:
(§1) Selected antibodies from Table 1 were further characterized for binding to synthetic MUC1 glycopeptides that were synthesized with the GalNac or GaNac-Gal carbohydrates on various serines and threonines along the MUC1 tandem repeat. If placed within the specific epitope recognized by an antibody, the antibody would not bind that particular glycopeptide.
A general note: An ELISA detects its analyte on a solid surface through an enzyme-linked reagent.

For assay [2], the target named is T2, Synthetic peptide HGVTSAPDTRPAPGSTAPP
T2 construct: Unglycosylated; also called 346; MUC1 repeat
T2 peptide: HGVTSAPDTRPAPGSTAPP
The assay is described as above.
Description: as §1

Assay [3] addresses T3, 100 aa-long synthetic MUC1 peptide (…)5.
T3 construct: also called 100-mer; vaccine 100-mer peptide
Briefly: ELISA titration on coated 100-mer peptide, EC50 approximated. The text has this: Heavy and light chains of antibodies reactive against MUC1 were generated from plasma of individuals vaccinated with a 100 aa-long synthetic MUC1 peptide (100-mer) representing the unglycosylated tumor associated MUC1 antigen (Kimura et al., 2013, Cancer Prev. Res. (Phila.), 6:18-26). Binding of monoclonal antibodies produced by combinatorial pairing of chains was characterized by ELISA using the vaccine 100-mer peptide consisting of the following sequence ([…])₅ (SEQ ID NO: 2). Briefly, 96-well high-binding ELISA plates were coated with 50 μl of the peptide diluted in carbonate buffer at 2 μg/ml. The wells were washed then blocked with 5% fat-free milk in phosphate-buffered saline (PBS). Antibodies were diluted in 5% milk in PBS with 0.1% TWEEN 20 (PBS-T) and then added to the peptide-coated, blocked wells and incubated at 37° C. for 2 hours, after which the wells were washed. Binding of antibody was probed with an anti-human IgG goat antibody conjugated to horseradish peroxidase (HRP), and signal was detected with 3,3′,5,5′-tetramethylbenzidine (TMB) substrate, which was neutralized with an acid, then the 450 nm absorbance was read. […] Additionally, the EC₅₀ of each antibody was approximated by ELISA titration (Table 1).

Assay [4] concerns the target T4, SEQ ID NO: 346 glycopeptide with TF-antigen at Thr4.
T4 construct: also called T4^TF
T4 peptide: HGVT(Galβ1‑3GalNAc)SAPDTRPAPGSTAPP
Briefly: ELISA on coated glycopeptide, antibody 0.01 mg/ml, mean of 3.
Description: as §1

The target of assay [5] is T5, SEQ ID NO: 346 glycopeptide with TF-antigen at Ser5 (not fully specified (residue 5)).
T5 construct: also called S5^TF
T5 peptide: HGVTSAPDTRPAPGSTAPP
The assay is described as above.
Description: as §1

In assay [6] the target is T6, SEQ ID NO: 346 glycopeptide with TF-antigen at Thr9.
T6 construct: also called T9^TF
T6 peptide: HGVTSAPDT(Galβ1‑3GalNAc)RPAPGSTAPP
The description is as above.
Description: as §1

The target in assay [7] is T7, SEQ ID NO: 346 glycopeptide with TF-antigen at Thr16.
T7 construct: also called T16^TF
T7 peptide: HGVTSAPDTRPAPGST(Galβ1‑3GalNAc)APP
The assay is described as above.
Description: as §1

For assay [8], the target named is T8, SEQ ID NO: 346 glycopeptide with TF-antigen at Thr4 and Thr9.
T8 construct: also called T4^TF/T9^TF
T8 peptide: HGVT(Galβ1‑3GalNAc)SAPDT(Galβ1‑3GalNAc)RPAPGSTAPP
Described as above.
Description: as §1

Assay [9] addresses T9, SEQ ID NO: 346 glycopeptide with Tn-antigen at Thr4, Thr9 and Thr16.
T9 construct: also called T4^Tn/T9^Tn/T16^Tn
T9 peptide: HGVT(αGalNAc)SAPDT(αGalNAc)RPAPGST(αGalNAc)APP
The assay is described as above.
Description: as §1

Where no end group is shown, it is not given here. The star is where a group is joined. αGalNAc = CC(=O)N[C@@H]1[C@@H](O)[C@@H](O)[C@@H](CO)O[C@@H]1*; Galβ1‑3GalNAc = TF-antigen

B1: M3 (antibody, human IgG1, lambda, V domains shown)
VH: QLQLQESGPGLVKPSETLSLTCTVSGGSISSSSYYWGWIRQPPGKGLEWIGSIYYSGSTHYNPSLKSRVTISVDTSKNQFSLKLRSVTAADTAVYYCARGVVEVRGNHYYYYYMDVWGKGTTVTVSS
VL: QSVLTQPPSVSGAPGQRVTISCTGSSSNIGAGYDVHWYQQLPGTAPKLLIYGNSYRPSGVPDRFSGSKSGTSASLAITGLQAEDEADYYCQSYDSSLSGSGVFGGGTKLTVLG
notes: Human IgG
On to B1, for which the “ELISA absorbance at 450 nm” value in [1] is 3.1 absorbance; in assay [2], 0.1 absorbance; in [4], 0.1 absorbance; in assay [5], 0.1 absorbance; in [6], 0.1 absorbance; in assay [7], 0.1 absorbance. The “ELISA absorbance at 450 nm” value in assay [8] and in [9] was 0.1 absorbance each time. Besides, a half-maximal response in assay [3] (EC50) required 0.011 µg/mL.

B2: M7 (antibody, human IgG1, kappa, V domains shown)
VH: EVQLVESGGGLVQPGGSLRLSCAASGFTVSSNYMSWVRQAPGKGLEWVSVIYSGGSTYYADSVKGRFTISRDNSKNTLYLQMNSLRAEDTAVYYCARGSTNTYYYDSSGHPWGQGTMVTVSS
VL: DIVMTQSPLSLPATPGEPASISCRSSQSLLHSNGYTYLDWYLQKPGQSPQVLIYLASNRASGVPDRFSGSGSGTNFTLKISRVEAEDVGLFYCMQALQTPQTFGQGTKLEIKR
notes: Human IgG
Take B2: the “ELISA absorbance at 450 nm” value is 3.5 absorbance in assay [1]; 0.1 absorbance in assay [2]; 0.1 absorbance in assay [4]; 0.1 absorbance in [5]; 0.1 absorbance in [6]; 0.1 absorbance in assay [7]. Besides, the “ELISA absorbance at 450 nm” value in assay [8] and in assay [9] was 0.1 absorbance throughout. For the same molecule, a half-maximal response in [3] (EC50) required 0.011 µg/mL.

B3: M1 (antibody, human IgG1, kappa, V domains shown)
VH: QLQLQESGPGLVKPSETLSLTCTVSGGSISSSRYYWGWIRQPPGKGLEWIGSIYYSGSTYYNPSLKSRVTISVDTSNNQFSLKLTSVTAADTAVYYCARLPESGGYSGWFDPWGQGTLVTVSS
VL: not shown
notes: Human IgG
For the molecule B3, the “ELISA absorbance at 450 nm” value in [1] stood at 3.2 absorbance; in assay [2], 0.1 absorbance; in [4] it was 0.1 absorbance; in assay [5] it was 0.1 absorbance; in [6] it was 0.1 absorbance; in assay [7], 0.1 absorbance. Further, the “ELISA absorbance at 450 nm” value in [8] and in [9] was 0.1 absorbance each time. Besides, the EC50 (commonly the concentration at which the effect is half-maximal) in assay [3] was 0.011 µg/mL.

B4: M2 (antibody, human IgG1, kappa, V domains shown)
VH: QLQLQESGPGLVKPSETLSLTCTVSGGSISSSRYYWGWIRQPPGKGLEWIGSIYYSGSTYYNPSLKSRVTISVDTSNNQFSLKLTSVTAADTAVYYCARLPESGGYSGWFDPWGQGTLVTVSS
VL: not shown
notes: Human IgG
Take B4: the “ELISA absorbance at 450 nm” value in [1] was 3.4 absorbance; in assay [2], 0.1 absorbance; in assay [4], 0.1 absorbance; in [5] it was 0.1 absorbance; in assay [6] it was 0.1 absorbance; in [7], 0.1 absorbance. Also, the “ELISA absorbance at 450 nm” value in [8] and in assay [9] was 0.1 absorbance in each case. Besides, a half-maximal response in assay [3] (EC50) required 0.007 µg/mL.
